How the values were obtained:
[1] = target: T1, PRR (Mus musculus, UniProt Q9CYN9); assay: Prorenin-induced pressor response with ICV PRR antagonist peptides in C57BI/6J mice; assay type: in vivo; set-up: from tissue; host or cells: brain of living C57Bl/6J mice (ICV infusion); details: ICV mouse prorenin 100 ng/ul alone or with peptide 45 ng/ul, 0.3 ul/minute for 10 minutes
Description: C57BI/6J mice (N=5/group) were each implanted with a telemetric probe for BP recording and an intracerebroventricular (ICV) cannula for infusion of mouse prorenin (100 ng/ul), PR10, or PR20 (45 ng/ul) at 0.3 ul/minute for 10 minutes. Mouse prorenin infusion increased the BP (mmHg) in WT mice (ΔMAP: 31.3±1.1); however, the prorenin-induced pressor response was abolished in either PR10 (ΔMAP: 16.9±4.4 vs. prorenin) or PR20 (ΔMAP: 12.7±0.5 vs. prorenin) infused mice.

[2] = test system: ENaC; assay: ENaC activity (Ieq, amiloride-sensitive current) in mpkCCD cells; assay type: cell-based; details: for Ieq: 10 nM for 5 min, control group 1.17+0.05; for second (chronic) phase of prorenin-increased sodium transport / ENaC activity / acute activation of ENaC by prorenin: prorenin 10 nM; for second (chronic) phase of prorenin-increased sodium transport / ENaC activity: 6 h to 24 h; for acute activation of ENaC by prorenin: PRO20 1.5 μM, losartan 1.0 μM, apocynin 1 mM, eplerenone 10 mg/L
Description: FIGS. 32A-H show the role of PRR in the acute regulation of ENaC activity in cultured CD cells. Confluent mpkCCD cells grown on Transwell membrane were pretreated for 30 min with PRO20 (1.5 μM), losartan (1.0 μM), apocynin (1 mM), or eplerenone (10 mg/L) and then treated with AngII (500 nM) or prorenin (10 nM). Ieq was measured by using EVOM and amiloride-sensitive Ieq was determined at the end of experiments. (A) Time course of Ieq changes in control, AngII, and AngII+PRO20 groups. (B) Amiloride-sensitive Ieq measured at 5 min for experiments in (A). (C) Time course of Ieq changes in control, prorenin, and prorenin+PRO20 groups. (D) Amiloride-sensitive Ieq measured at 5 min for experiments in (C). (E) Time course of Ieq changes in control, prorenin, and prorenin+losartan groups. (F) Amiloride-sensitive Ieq measured at 5 min for experiments in (E). (G) Amiloride-sensitive Ieq measured at 5 min in control, prorenin, and prorenin+apocynin groups. (H) Amiloride-sensitive Ieq measured at 5 min in control, prorenin, and prorenin+eplerenone groups. N=6-12 per group. Data are means±SE.
FIGS. 33A-D show the role of PRR in chronic regulation of ENaC by prorenin in cultured CD cells. (A) Time course of Ieq changes in control, prorenin, prorenin+PRO20, and prorenin+losartan groups over 24 h in mpkCCD cells. (B) Time course of changes in Ieq during 24-h aldosterone treatment in mpkCCD cells. (C) Amiloride-sensitive Ieq in mpkCCD cells after exposure for 24 h to 10 nM prorenin in presence or absence of eplerenone. (D) Medium aldosterone concentration in primary rat IMCD cells exposed for 24 h to 10 nM prorenin alone or in combination with 1.5 μM PRO20 or 1.0 μM losartan.
Electrophysiology experiments were performed on the immortalized mpkCCD cells once the cell monolayers reached confluence. The transepithelial voltage (Vte) and resistance (Rte) across cell monolayers were measured with an epithelial volt-ohmmeter (World Precision Instruments). The transepithelial current was calculated according to Ohm's law, Ite=Vte/Rte, and normalized by the surface area of the insert. AngII (500 nM) or prorenin (10 nM) was added to the apical side of the inserts, and amiloride (10 μM) was added at the end of experiments to calculate amiloride-sensitive sodium current as the difference between total current and amiloride-insensitive current.

[3] = test system: PRR; assay: ICV infusion pressor response in WT and neuron-specific PRR knockout (Nefh-PRR) mice, telemetry; assay type: in vivo, mouse; details: for ΔMAP, pressor response to ICV infusion: Nefh-PRR mice, ICV 100 ng/ul at 0.3 ul/minute for 10 minutes
Description: (§1) FIG. 6 is a series of graphs illustrating the pressor response to intracerebroventricular (ICV) infusion of carbachol (FIG. 6A), Ang II (FIG. 6B), renin (FIG. 6C), and prorenin (FIG. 6D) in wild-type (WT) and Nefh-PRR mice. WT and Nefh-PRR mice were implanted with telemetric transmitters and ICV cannula. Two weeks after recovery, mice were ICV infused (0.3 μl/min) with carbachol (100 ng/μl), Ang II (100 ng/μl), Ang II (100 ng/μl), +losartan (10 ng/μl), mouse renin (100 ng/μl), mouse prorenin (100 ng/μl), or mouse prorenin (100 ng/μl) +losartan (10 ug/μl) over 10 minutes. Blood pressure (BP) was recorded in conscious freely moving mice. *P<0.05 vs. WT.
(§2) Neuron-specific PRR knockout mice (Nefh-PRR) and wildtype (WT) littermates (N=5/group) were each implanted with a telemetric probe for blood pressure (BP) recording and an intracerebroventricular (ICV) cannula for infusion of mouse prorenin (100 ng/ul), mouse renin (100 ng/ul), or an Ang II type 1 receptor (AT1R) blocker (losartan, 10 ug/ul) at 0.3 ul/minute for 10 minutes. Mouse prorenin infusion increased the BP (mmHg) in WT mice (ΔMAP: 41±5); however, the prorenin induced pressor response was abolished in Nefh-PRR mice (ΔMAP: 5±1).

[4] = target: T1, PRR; assay: as above; assay type: in vivo; set-up: Neuron-specific PRR knockout mice (Nefh-PRR) and wildtype (WT) littermates (N=5/group) were each implanted with a telemetric probe; from tissue; host or cells: brain of living WT and Nefh-PRR mice (ICV infusion); details: WT mice; ICV 100 ng/ul at 0.3 ul/minute for 10 minutes
Description: as §1, §2

T1 sequence (Q9CYN9 18-350): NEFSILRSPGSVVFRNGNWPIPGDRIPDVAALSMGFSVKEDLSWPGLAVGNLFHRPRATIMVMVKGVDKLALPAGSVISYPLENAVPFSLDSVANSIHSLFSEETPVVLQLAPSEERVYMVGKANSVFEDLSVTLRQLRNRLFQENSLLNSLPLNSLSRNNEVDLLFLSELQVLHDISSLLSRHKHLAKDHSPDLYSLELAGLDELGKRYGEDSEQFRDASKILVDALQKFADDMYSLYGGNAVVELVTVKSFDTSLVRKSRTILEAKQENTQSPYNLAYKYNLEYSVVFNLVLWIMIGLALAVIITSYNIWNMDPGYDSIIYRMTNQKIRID

With “LPTDTTTFKRIFLKRMPSI (PRR antagonist) [PR20]” the “ΔMAP, prorenin-induced pressor response” value [1] was 12.7±0.5 mmHg.

In the case of IFDNIISQGVLKEDVF (PRR antagonist PR10), the “ΔMAP, prorenin-induced pressor response” value [1] is reported as 16.9±4.4 mmHg.

In the case of renin, the Ieq [2] is reported as 1.58+0.19 μA/cm2.

`CCCCc1nc(Cl)c(CO)n1Cc1ccc(-c2ccccc2-c2nn[nH]n2)cc1` [losartan] was tested, and the “pressor response induced by prorenin or renin” value ([3]; ICV losartan 10 ug/ul) was “completely blocked”, the “second (chronic) phase of prorenin-increased sodium transport / ENaC activity” value [2] was “not” and the “acute activation of ENaC by prorenin” value [2] was “not”.

In the case of `COC(=O)[C@@H]1CC2=CC(=O)CC[C@]2(C)[C@@]23O[C@@H]2C[C@@]2(C)[C@@H](CC[C@@]24CCC(=O)O4)[C@H]13` [eplerenone], the “second (chronic) phase of prorenin-increased sodium transport / ENaC activity” value [2] is reported as “effectively blocked” and the “acute activation of ENaC by prorenin” value [2] is reported as “unaffected”.

In the case of `COc1cc(C(C)=O)ccc1O` [apocynin], the “acute activation of ENaC by prorenin” value [2] is reported as “completely abolished”.

B1: mouse renin: mouse renin, infused ICV (protein, UniProt P06281 72-402, looked up)
Renin-1: SPVVLTNYLNTQYYGEIGIGTPPQTFKVIFDTGSANLWVPSTKCSRLYLACGIHSLYESSDSSSYMENGSDFTIHYGSGRVKGFLSQDSVTVGGITVTQTFGEVTELPLIPFMLAKFDGVLGMGFPAQAVGGVTPVFDHILSQGVLKEEVFSVYYNRGSHLLGGEVVLGGSDPQHYQGNFHYVSISKTDSWQITMKGVSVGSSTLLCEEGCAVVVDTGSSFISAPTSSLKLIMQALGAKEKRIEEYVVNCSQVPTLPDISFDLGGRAYTLSSTDYVLQYPNRRDKLCTLALHAMDIPPPTGPVWVLGATFIRKFYTEFDRHNNRIGFALAR
B1 was tested, and the “ΔMAP, pressor response to ICV infusion” value [3] was 27±2 mmHg and the “ΔMAP, pressor response to ICV infusion” value [4] was 31±5 mmHg.

B2: mouse prorenin: mouse prorenin, ligand of PRR, infused ICV (protein)
chain: LPTRTATFERIPLKKMPSVREILEERGVDMTRLSAEWGVFTKRPSLTNLTSPVVLTNYLNTQYYGEIGIGTPPQTFKVIFDTGSANLWVPSTKCSRLYLACGIHSLYESSDSSSYMENGSDFTIHYGSGRVKGFLSQDSVTVGGITVTQTFGEVTELPLIPFMLAKFDGVLGMGFPAQAVGGVTPVFDHILSQGVLKEEVFSVYYNRGSHLLGGEVVLGGSDPQHYQGNFHYVSISKTDSWQITMKGVSVGSSTLLCEEGCAVVVDTGSSFISAPTSSLKLIMQALGAKEKRIEEYVVNCSQVPTLPDISFDLGGRAYTLSSTDYVLQYPNRRDKLCTLALHAMDIPPPTGPVWVLGATFIRKFYTEFDRHNNRIGFALAR
B2 was tested, and the “ΔMAP, pressor response to ICV infusion” value [3] was 5±1 mmHg, the “ΔMAP, prorenin-induced pressor response” value [1] was 31.3±1.1 mmHg and the “ΔMAP, pressor response to ICV infusion” value [4] was 41±5 mmHg.

B3: prorenin: prorenin added at 10 nM to mpkCCD cells; species not stated (protein)
chain: B2 chain
With B3 the Ieq [2] was 3.16+0.07 μA/cm2.

Source: patent US9586995B2, “Compositions and methods of use for (pro)renin receptor” (University of Utah, priority 2012, dated 2017)
